T1: HECT domain of Nedd4, Y605A (as used for SPR) (UniProt P46934-4, Y605A)
T1 sequence: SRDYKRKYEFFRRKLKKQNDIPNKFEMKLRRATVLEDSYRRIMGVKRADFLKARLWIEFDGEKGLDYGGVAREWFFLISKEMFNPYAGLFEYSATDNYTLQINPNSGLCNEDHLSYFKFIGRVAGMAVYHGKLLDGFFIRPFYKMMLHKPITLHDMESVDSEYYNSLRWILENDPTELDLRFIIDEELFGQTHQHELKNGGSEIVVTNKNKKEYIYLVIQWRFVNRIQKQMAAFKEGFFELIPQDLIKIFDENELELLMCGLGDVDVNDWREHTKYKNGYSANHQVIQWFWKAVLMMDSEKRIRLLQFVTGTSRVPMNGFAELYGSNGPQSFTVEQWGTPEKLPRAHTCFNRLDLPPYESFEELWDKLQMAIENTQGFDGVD

T2: HECT domain of Nedd4, F707A (as used for fluorescence polarisation and SPR) (UniProt P46934-4, F707A)
T2 sequence: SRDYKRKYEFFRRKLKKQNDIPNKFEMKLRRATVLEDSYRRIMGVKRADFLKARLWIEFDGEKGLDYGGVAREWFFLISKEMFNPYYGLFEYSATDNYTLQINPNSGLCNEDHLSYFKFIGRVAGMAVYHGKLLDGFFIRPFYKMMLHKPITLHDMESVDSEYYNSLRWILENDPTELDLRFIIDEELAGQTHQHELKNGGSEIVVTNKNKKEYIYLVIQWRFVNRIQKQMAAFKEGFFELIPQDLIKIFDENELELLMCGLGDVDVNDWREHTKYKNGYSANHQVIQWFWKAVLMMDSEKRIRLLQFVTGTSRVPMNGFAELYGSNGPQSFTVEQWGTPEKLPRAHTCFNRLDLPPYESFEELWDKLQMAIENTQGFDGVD

T3: GST-fusion of the HECT domain of Nedd4, wild type (UniProt P46934-4)
T3 sequence: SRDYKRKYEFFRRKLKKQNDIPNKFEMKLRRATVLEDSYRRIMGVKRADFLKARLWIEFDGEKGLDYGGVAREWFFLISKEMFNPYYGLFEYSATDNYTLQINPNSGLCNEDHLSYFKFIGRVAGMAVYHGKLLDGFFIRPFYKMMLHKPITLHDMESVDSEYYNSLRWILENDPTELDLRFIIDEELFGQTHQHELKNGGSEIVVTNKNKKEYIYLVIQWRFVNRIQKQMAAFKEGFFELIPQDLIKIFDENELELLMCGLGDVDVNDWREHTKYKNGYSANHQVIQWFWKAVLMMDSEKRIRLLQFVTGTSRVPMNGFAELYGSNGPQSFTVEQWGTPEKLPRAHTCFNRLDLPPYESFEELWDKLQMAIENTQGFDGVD


What was measured:
ubiquitin (monomeric) = ubiquitin (monomeric) (UniProt P0CG48 1-76); test: fluorescence polarisation
[1] = biological target: T1, HECT domain of Nedd4, Y605A (as used …); test: SPR
[2] = biological target: T2, HECT domain of Nedd4, F707A (as used …); test: SPR
[3] = biological target: T3, GST-fusion of the HECT domain of Nedd4, …; test: pull-down

Row | Binder | Kd (ubiquitin (monomeric)) [µM] | binding result [1] | binding result [2] | binding result [3]
1 | HECT domain of Nedd4, wild type (as used for crystals, fluorescence polarisation, SPR and supplementary Fig S1) (domain or fragment) SRDYKRKYEFFRRKLKKQNDIPNKFEMKLRRATVLEDSYRRIMGVKRADFLKARLWIEFDGEKGLDYGGVAREWFFLISKEMFNPYYGLFEYSATDNYTLQINPNSGLCNEDHLSYFKFIGRVAGMAVYHGKLLDGFFIRPFYKMMLHKPITLHDMESVDSEYYNSLRWILENDPTELDLRFIIDEELFGQTHQHELKNGGSEIVVTNKNKKEYIYLVIQWRFVNRIQKQMAAFKEGFFELIPQDLIKIFDENELELLMCGLGDVDVNDWREHTKYKNGYSANHQVIQWFWKAVLMMDSEKRIRLLQFVTGTSRVPMNGFAELYGSNGPQSFTVEQWGTPEKLPRAHTCFNRLDLPPYESFEELWDKLQMAIENTQGFDGVD | 11 | – | – | –
2 | E2 enzyme Ube2D3 (apo form) (enzyme) not shown | – | binds | binds | binds

Reference: article PMC3077247 (EMBO Reports, 2011)
